Source: patent US20140271701A1

Target: serum antibodies (IgG) of Sardinian T1D patients, Example 1 (n=34; Ab+ sera) (human)
Assay: competition ELISA on MAP3865c125-133-coated plates, sera pre-adsorbed with saturating peptide

Binder: MIIVSSCAV [ZnT8178-186 peptide (…)]
- percent inhibition: 57 to 89%
